Target: human Nectin-4 on Nectin4-CHOK1 cells (CHO-K1 cell strain highly expressing Nectin-4) (human) (UniProt Q96NY8)
Assay: cell-based or functional assay

Chain of human Nectin-4 on Nectin4-CHOK1 cells (CHO-K1 cell strain highly expressing Nectin-4) (human) (Q96NY8 32-510 limits assumed): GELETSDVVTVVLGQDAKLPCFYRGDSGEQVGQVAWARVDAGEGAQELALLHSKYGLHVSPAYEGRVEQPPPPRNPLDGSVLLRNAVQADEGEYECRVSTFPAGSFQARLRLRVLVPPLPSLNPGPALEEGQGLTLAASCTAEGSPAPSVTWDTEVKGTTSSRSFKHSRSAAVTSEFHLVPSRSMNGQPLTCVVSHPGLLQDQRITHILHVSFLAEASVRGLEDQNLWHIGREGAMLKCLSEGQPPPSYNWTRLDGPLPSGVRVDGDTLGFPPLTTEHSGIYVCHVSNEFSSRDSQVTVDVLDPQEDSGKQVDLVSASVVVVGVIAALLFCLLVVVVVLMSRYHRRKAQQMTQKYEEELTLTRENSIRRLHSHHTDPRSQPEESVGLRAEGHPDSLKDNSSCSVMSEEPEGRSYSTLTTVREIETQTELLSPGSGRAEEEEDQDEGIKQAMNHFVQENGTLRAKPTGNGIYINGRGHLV

FITC-A signal value, 5 nM Ab + 15 nM pHrodo (pHrodo endocytosis assay, Nectin4-CHOK1 clone 3): 129
FITC-A signal value, 20 nM Ab + 60 nM pHrodo (pHrodo endocytosis assay, Nectin4-CHOK1 clone 3): 154
Substance: C25-IgG1 (IgG1 isotype negative control) (antibody)

From patent US20260199504A1
